# Literature values as cited in publication PMC2990782 (Gene therapy, 2010).
# Details: i.v. dosed polyplex; ref [22]
substance,measurement,value
PEG-Cys-Trp-Lys18,time to complete metabolism of plasmid DNA in the circulation,≤ 3 min
